± gives the standard deviation of the averaged measurements.
tested on: Saccharomyces cerevisiae; experiment: protein stability index of tFT-peptide fusion (C-terminal peptide) (PSI (0-1 scale)); higher = more stable (slower turnover); conditions: genetic background: wild type; temperature: 30 C
Experimental: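 Multiplexed protein stability (MPS) profiling in S. cerevisiae. Random 12-aa peptides (tFT-X12 library) are fused to the C-terminus of a sfGFP-mCherry tandem fluorescent timer, after mCherry and a GGGS linker. Cells are FACS-sorted into 8 mCherry/sfGFP bins and deep-sequenced. The protein stability index (PSI) is the read-weighted bin average, scaled from 0 (unstable) to 1 (stable). Only peptides with >10 reads are reported; cells were grown at 30 °C in SC-His with glucose.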
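Also: PSI is a weighted mean of sequencing reads over stability bins, variants kept only with over 10 reads, mCherry proximal and sfGFP distal, peptide attached via GGGS linker.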

Row | Sequence | protein stability index
1 | GGSIGTELAAVI | 0.682 ± 0.054
2 | GGSRGGRWGLGE | 0.746 ± 0.087
3 | GGSRRGLGAAGE | 0.671 ± 0.022
4 | GGTPIGAHVLLR | 0.661 ± 0.00077
5 | GGVCRARVAETV | 0.674 ± 0.0074
6 | GGVGGGGREWRR | 0.683 ± 0.033
7 | GGVGGRGREWRR | 0.7 ± 0.028
8 | GGVGGVRLVVSR | 0.684 ± 0.064
9 | GGVGRGVGRGWG | 0.671 ± 0.03
10 | GGVLGNGCGFGR | 0.784 ± 0.065
11 | GGVRAAGTGCGG | 0.642 ± 0.031
12 | GGVSGESAVVSV | 0.649 ± 0.038
13 | GGVSRLVGRLGG | 0.7055 ± 0.0017
14 | GGVVCWACRWEL | 0.671 ± 0.04
15 | GGVVGWCAGKVV | 0.642 ± 0.071
16 | GGVVSVYCEVSR | 0.625 ± 0.016
17 | GGWPWGGFLVDR | 0.735 ± 0.012
18 | GGWRGWAGENTR | 0.699 ± 0.035
19 | GGWRRDGSLCGA | 0.733 ± 0.14
20 | GGWSIVQKRRGG | 0.7215 ± 0.0034
21 | GGWWVLCGGGWG | 0.567 ± 0.025
22 | GGYGRAGRDVGG | 0.655 ± 0.035
23 | GGYLLAGEGTFA | 0.702 ± 0.0094
24 | GHEQIISIKGIK | 0.73 ± 0.049
25 | GHVETQTRMASG | 0.789 ± 0.19

Row | Sequence | protein stability index
26 | GIGSHSSSNVNP | 0.791 ± 0.094
27 | GIKKNKIKKKKI | 0.624 ± 0.054
28 | GIKRKEKEKKNN | 0.615 ± 0.026
29 | GIMNDMPSLTAT | 0.6757 ± 0.0038
30 | GISASLRRMTRR | 0.623 ± 0.017
31 | GISLTVTVRGWL | 0.496 ± 0.019
32 | GIVFGMRKSDFK | 0.764 ± 0.1
33 | GIYAWFSGWRKD | 0.72 ± 0.015
34 | GKAIIIFEQLRR | 0.749 ± 0.12
35 | GKEGKGEAGIGE | 0.686 ± 0.024
36 | GKEQIEKKIEGI | 0.589 ± 0.009
37 | GKGGAEHADQVL | 0.669 ± 0.099
38 | GKGGITGWCCHH | 0.648 ± 0.04
39 | GKHIAEMGNRKN | 0.716 ± 0.074
40 | GKIGYQLGAVIN | 0.709 ± 0.068
41 | GKINPKMEIWIE | 0.7011 ± 0.0049
42 | GKKTTQELGKTK | 0.803 ± 0.13
43 | GKKYDEAQLRKG | 0.709 ± 0.041
44 | GKMLCADRSLEY | 0.701 ± 0.11
45 | GKNIINSKITYK | 0.772 ± 0.043
46 | GKRKEKLEQTAQ | 0.688 ± 0.027
47 | GKSGGTGAGEKR | 0.661 ± 0.046
48 | GKTVRERWATRP | 0.651 ± 0.064
49 | GKYHIFNPNPKA | 0.685 ± 0.012
50 | GLAELLLTKPTV | 0.652 ± 0.021

Row | Sequence | protein stability index
51 | GLAGWCGGGWAL | 0.705 ± 0.026
52 | GLAPPRPYPPPA | 0.728 ± 0.065
53 | GLCRVANGGTER | 0.695 ± 0.018
54 | GLGGRAAQKCGQ | 0.688 ± 0.016
55 | GLGQGVGWPWAV | 0.678 ± 0.024
56 | GLGRRPGVGGVR | 0.71 ± 0.0075
57 | GLGVPWVRWGWV | 0.632 ± 0.019
58 | GLGVVHGYFLVE | 0.59 ± 0.025
59 | GLKNECAIDGVL | 0.623 ± 0.045
60 | GLLCWVGRWGVF | 0.596 ± 0.05
61 | GLLGFVLSKDST | 0.719 ± 0.052
62 | GLLPTPPASLLY | 0.6888 ± 0.00085
63 | GLLRVGGFWSCL | 0.747 ± 0.019
64 | GLLSKVEFEEYQ | 0.655 ± 0.014
65 | GLLVAGGRNGDC | 0.719 ± 0.054
66 | GLLYHIRVRSRG | 0.66 ± 0.006
67 | GLMITSARYVGF | 0.641 ± 0.012
68 | GLNCGVCFGGGV | 0.701 ± 0.025
69 | GLPHPPPHPFSL | 0.763 ± 0.055
70 | GLPSLHGTFRLS | 0.69 ± 0.0077
71 | GLQLTLINLPLE | 0.749 ± 0.029
72 | GLSSVVWSGGLC | 0.6222 ± 0.0047
73 | GLVAVRARGSRA | 0.663 ± 0.094
74 | GLVGPKDRVSGL | 0.701 ± 0.018
75 | GLYSRPVNSNSF | 0.762 ± 0.022

Row | Sequence | protein stability index
76 | GMDGRGWGGSVV | 0.726 ± 0.038
77 | GMECFSGRGSEP | 0.735 ± 0.062
78 | GMIGLAEVGIKC | 0.573 ± 0.0067
79 | GMPTANMYLLLQ | 0.636 ± 0.017
80 | GMYRHEGQSWDL | 0.7316 ± 0.0065
81 | GNEKSSRLRSTT | 0.644 ± 0.12
82 | GNFGFKVELGVR | 0.686 ± 0.031
83 | GNIREEYGSTGI | 0.7226 ± 0.0032
84 | GNKKENEKKEKK | 0.734 ± 0.022
85 | GNPGRTAHILQL | 0.655 ± 0.03
86 | GNTGRLERLKRQ | 0.734 ± 0.072
87 | GNVRRVYMDYQG | 0.735 ± 0.039
88 | GPCQSPSLVLTC | 0.555 ± 0.012
89 | GPGSWKWKSRRV | 0.6634 ± 0.0034
90 | GPGTAMCLWWWG | 0.692 ± 0.0085
91 | GPGTSSVARPVS | 0.735 ± 0.07
92 | GPGYVFVGSGGW | 0.692 ± 0.027
93 | GPLDEPRIWSHR | 0.669 ± 0.0095
94 | GPLEGGDGRWVG | 0.6852 ± 0.0015
95 | GPLNQALLHCSV | 0.653 ± 0.021
96 | GPPAGGTARSPM | 0.694 ± 0.029
97 | GPRGGGGWSCES | 0.7366 ± 0.0032
98 | GPRIVVLKDVII | 0.6403 ± 0.0063
99 | GPSPFCTIRLKN | 0.655 ± 0.018
100 | GPSREFGSNWII | 0.612 ± 0.034

Row | Sequence | protein stability index
101 | GPSSVGWLFVVC | 0.553 ± 0.039
102 | GPSTVPGHGSDT | 0.689 ± 0.021
103 | GPTFPPGLPSSL | 0.695 ± 0.09
104 | GQEAGRERNNWQ | 0.694 ± 0.011
105 | GQGEPRRVWGVV | 0.6746 ± 0.005
106 | GQGGRAGRAADV | 0.6532 ± 0.001
107 | GQIKIRAFPKSR | 0.662 ± 0.052
108 | GQPYTHASSSIG | 0.685 ± 0.017
109 | GQSVRELDSIKV | 0.652 ± 0.17
110 | GQVSVGAVGSFE | 0.642 ± 0.097
111 | GRACCILWGGPE | 0.694 ± 0.06
112 | GRASGGGLGRGR | 0.593 ± 0.0086
113 | GRDSECCSGGGG | 0.683 ± 0.018
114 | GRENKWGKGRRE | 0.67 ± 0.035
115 | GRFVVHEEVWFV | 0.6958 ± 0.0035
116 | GRGACHSRGNQP | 0.668 ± 0.014
117 | GRGGARARRRVL | 0.687 ± 0.071
118 | GRGGEVALWRGV | 0.6479 ± 0.0014
119 | GRGGGGVEPCFV | 0.669 ± 0.07
120 | GRGICFGLPFLR | 0.683 ± 0.039
121 | GRGLAEGRRITR | 0.638 ± 0.062
122 | GRGLVDLLCGWV | 0.683 ± 0.074
123 | GRGRCRGGVAVE | 0.751 ± 0.23
124 | GRGSAGPARVST | 0.697 ± 0.024
125 | GRGSGRCVVYWG | 0.651 ± 0.069

Row | Sequence | protein stability index
126 | GRGVAPQGAVDA | 0.714 ± 0.027
127 | GRKGARESSNEI | 0.667 ± 0.0075
128 | GRKNPPGTTDES | 0.725 ± 0.073
129 | GRKSSITLLHTL | 0.58 ± 0.043
130 | GRLFLHPSLLAS | 0.596 ± 0.062
131 | GRLIGICECLSV | 0.622 ± 0.017
132 | GRLIRYGSLPSP | 0.729 ± 0.032
133 | GRLLVSVFEVVH | 0.614 ± 0.14
134 | GRMGGWCVSGEV | 0.658 ± 0.017
135 | GRNIIARLNNMT | 0.5748 ± 0.0047
136 | GRNLFGLLWARP | 0.721 ± 0.0094
137 | GRRERSGKGKER | 0.804 ± 0.14
138 | GRRGWFESSIRR | 0.731 ± 0.014
139 | GRRPRRLNKDVQ | 0.614 ± 0.025
140 | GRRRARPISRGT | 0.681 ± 0.047
141 | GRRRSRGRPIDL | 0.754 ± 0.03
142 | GRRRTFGRSRGG | 0.651 ± 0.029
143 | GRRVKTVNSLGL | 0.709 ± 0.061
144 | GRRWKQHPGWVS | 0.573 ± 0.051
145 | GRSGSVGGIRGR | 0.727 ± 0.04
146 | GRSGWFGSEGVR | 0.803 ± 0.12
147 | GRSHYFLSILRI | 0.5268 ± 0.0018
148 | GRSIGVGGGGRG | 0.719 ± 0.059
149 | GRSLGTPRYHPG | 0.713 ± 0.016
150 | GRSRGEGVRRNH | 0.583 ± 0.042

Row | Sequence | protein stability index
151 | GRSYCTLVFVWK | 0.582 ± 0.011
152 | GRTDKKKFISGL | 0.608 ± 0.029
153 | GRTENKKPSIKL | 0.711 ± 0.058
154 | GRVFDTNGIGLG | 0.694 ± 0.074
155 | GRVIVCLSWGRL | 0.591 ± 0.019
156 | GRVKEKCKRRYR | 0.657 ± 0.034
157 | GRVLSEAWSEAF | 0.664 ± 0.054
158 | GRVPSPDIGLPA | 0.672 ± 0.022
159 | GRVSFFDYSRER | 0.704 ± 0.06
160 | GRWRVEYWGFGG | 0.722 ± 0.025
161 | GRYYVPGLAALV | 0.653 ± 0.0085
162 | GSAACPVRGRFF | 0.639 ± 0.095
163 | GSCFLLSLVSFI | 0.56199 ± 0.00047
164 | GSDHIRQRNRME | 0.716 ± 0.025
165 | GSDPPAPLRHPR | 0.709 ± 0.19
166 | GSDVPCFLSLSY | 0.711 ± 0.02
167 | GSDWGYDSGLKG | 0.765 ± 0.044
168 | GSEVWGSPGFGG | 0.803 ± 0.0083
169 | GSFPNSADQTFD | 0.659 ± 0.014
170 | GSGGGVRRTIML | 0.739 ± 0.022
171 | GSGGSGLLLVEW | 0.763 ± 0.02
172 | GSGKHVGYIRVK | 0.656 ± 0.0082
173 | GSGLWAGLWRAW | 0.727 ± 0.078
174 | GSGRLGGDRVVG | 0.6578 ± 0.0029
175 | GSGRSGSRFLPV | 0.6606 ± 0.0057

Row | Sequence | protein stability index
176 | GSGVGACRGVKV | 0.685 ± 0.034
177 | GSGYRPRVESWI | 0.681 ± 0.0079
178 | GSKLTLRLSEHF | 0.686 ± 0.025
179 | GSLGVWKGCGEG | 0.652 ± 0.018
180 | GSLHPAPDLRTR | 0.709 ± 0.036
181 | GSLLVCGMVAGM | 0.5236 ± 0.0046
182 | GSNCQVRMSIHR | 0.703 ± 0.011
183 | GSNLQWNSKREE | 0.6165 ± 0.0016
184 | GSNTTKRESQPH | 0.708 ± 0.067
185 | GSPPSSLTADSA | 0.683 ± 0.017
186 | GSPSRKGQSRTG | 0.698 ± 0.012
187 | GSRALDSPSHCS | 0.74 ± 0.023
188 | GSRARKARQPHG | 0.582 ± 0.2
189 | GSRGGPVGEAAG | 0.665 ± 0.012
190 | GSRIGTVSIRRI | 0.691 ± 0.072
191 | GSRRVSFFLRFG | 0.647 ± 0.033
192 | GSSAEGKALTES | 0.668 ± 0.053
193 | GSTGRGEGSGVT | 0.664 ± 0.04
194 | GSTLWGMAGGAR | 0.6985 ± 0.0056
195 | GSVEGVLWSGVL | 0.711 ± 0.031
196 | GSVFVFWESWRC | 0.6803 ± 0.0029

From the supplement of paper PMC10724198
